Experiment: yeast display, Sf9 membrane polyspecificity reagent, FACS + sequencing; frameworks hold sequencing errors
How it was run: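 A nanobody's polyreactivity label depends on the gate it was sorted from. Yeast display cells were stained with 10% biotinylated, detergent-solubilized Sf9 membrane reagent for 1 hour at 4 °C, enriched on streptavidin microbeads and sorted by FACS. The low and high (top ~1%) gates were set on anti-HA fluorescence for expression and streptavidin fluorescence for reagent binding.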
With “QVQLVESGGGLVQAGGSLRLSCAASGSIFSGYDMGWYRQAPGNERELVAVISWSTTSTYYADSVKGRFTISRDNAKNTVYLQMNSLKPEDTAVYYCNAEAYQYWEFDYWGQGSQVTVSS” the “polyreactivity (PSR sort gate)” value was “low polyreactivity”.
In the case of “QVHLVESGGGLVQAGGSLRLSCAASGRIFYYYAMGWYRQAPGKEREFVAAIRISGGSTNYADSVKGRFTISRDNAKNTVYLQMNSLKPEDTAVYYCAARSKYSGIRRAYDYWGQGTQVTVSS”, the “polyreactivity (PSR sort gate)” value is reported as “high polyreactivity”.
With “QVHLEESGGGLVQAGGSLRLSSAASGFTFRSNAMGWYRQAPGKERELVAAITSRGGSTYYADSVKGRFTISRDYAINTVYLQMNSLKPEDTAVYYGAADGRSRKFDYWGQGTQVTVSS” the “polyreactivity (PSR sort gate)” value was “high polyreactivity”.
With “QVQLVESGGGLEQAGGSLRISCAASGITFRWYAMGWYRQAPGKERELVAAISERGGSTYYADSVKGRFTISRDNAKNTVYLQMNSLKPEDTAVYYCAADSQHWQRWHGYWGQGTEVTVSS” the “polyreactivity (PSR sort gate)” value was “high polyreactivity”.
For “QVQLVESGGGLVQAGGSLRLSCAASGRTFIANAMGWYRQAPGKERELVAVITLNGGSTYYADSVKGRFTISRDNAKNTVYLQMNSLKPEDSAVYYCDAGRYYNLRATHGYWRQGTQVTVSS”, the “polyreactivity (PSR sort gate)” value was “low polyreactivity”.
In the case of “QVQLVESGGGLVQAGGSLRLSCAACGSTFRYYAMGWYRQAPGKERELVAAITYSGGSTYYADSVKGRFTISRDNAKNTVYLQMNSLKPEDTAVYYCNADFLPRWYPPPYDYWGQGTQVTVSS”, the “polyreactivity (PSR sort gate)” value is reported as “high polyreactivity”.
In the case of “QVQLVESGGGLVQAGGSLRLSCAASGSIFFEYAMGWYRQATGKERELVAAISRRGGSTYYADSVKGRFTISRDNAKNTVYVQMNSLKPEDTAVYYCNKVNRASRGDYDYWGQGTQVTVSS”, the “polyreactivity (PSR sort gate)” value is reported as “high polyreactivity”.
In the case of “QVQLVESGGGLVQAGGSLRLSCAASGRTFVVNVMGWYRQAPGKERELVAAISSVVSTNYADSVKGRFTISRDNAKNTVYLQMNCLKPEDTAVYYCAADVRGAYSTYLYTTTIRYDYWGQGTQVTVSS”, the “polyreactivity (PSR sort gate)” value is reported as “low polyreactivity”.
For “QVQLVESGGGLVQAGGSLRLSCAASGFTFSYYAMGWYRQAPGKERELVAAITTSGGRTYYADSVKGRFTISRDNAKNTVYLQMNSLKPEDPAVYYCAATYPRYYSGEFDYWGQGTQVTVSS”, the “polyreactivity (PSR sort gate)” value was “high polyreactivity”.
With “QVQLVESGGGLVQAGGSLRLSCAASGRTFDTNARGWYRQAPGKERELVAVITARGGNTSYADSVKGRFTISRDNAKNTVYLQMNSLKPEDTAVYYCAARVYRAPWTYEEGNYWGQGTQVTVSS” the “polyreactivity (PSR sort gate)” value was “low polyreactivity”.
In the case of “QVQLVESGGGLVQAGGSLLLSCAASGFTFLWYDMGWYRQSPGKERELVAAIDASDGSTYYADSVKGRFTISRDNAKNTVYLQMNSLKPEDTAVYYCAVAAGYFGKWTYYYWGQGTQVTVSS”, the “polyreactivity (PSR sort gate)” value is reported as “high polyreactivity”.
In the case of “QVQLVESGGGLVQAGVSLRLSCAASGRTFFLYAMGWYRQAPGKERELVARISTSGGGTYYADSVKGRFTISRDNAKYTVYLQMNSLKPEDTAVYYCAARTFRGQRRAGGYDYWGQGTQVTVSS”, the “polyreactivity (PSR sort gate)” value is reported as “high polyreactivity”.
For “QVQLVESGGGLVQAGGSLRLSCAASGITFQDYAMGWYRQAPGKERELVAAISKSGGSTYYADSVKGRFTISRDNAKNTVYLQMNSLKPEDTAVYYCAAYAQKRYYWGQGTQVTVSS”, the “polyreactivity (PSR sort gate)” value was “high polyreactivity”.
For “QVQLVESGGGLVQAGGSLRLSCAASGRIFYSYAMGWYRQAPGKERELVAAISSAGSTYYADSVKGRFTISRDNAKNTVYLQMNSLKPEDTAVYYCAAGVTYYRYVSYVGPVPLGFDYWGQGTQVTVSS”, the “polyreactivity (PSR sort gate)” value was “high polyreactivity”.
For “QVQLLESGGGLVQSGGSLRLSCAASGFIFYSYAMGGYRQAPGKERELVAAITEDGDSTYYADSVKWRFTISRDNAKNTVYLQMNSLNPEDTAGYYCNTDLTFNGTSGAYDYWGQGTQVTVSS”, the “polyreactivity (PSR sort gate)” value was “low polyreactivity”.
For “QVQLVESGGGLVQAGGSLRLSCAASGSTFSSNAMGWYRQAPGKERELVAAISSGGSTNYADSVKGRFTISRDNAKNTVYLQMNSLKPEDTAVYYCAADRSPEYYWGQGTQVTVSS”, the “polyreactivity (PSR sort gate)” value was “low polyreactivity”.
In the case of “QVQLVESGGGLVQAGGSLRLSCAASGSIFSVNAMGWYRQAPGKERELVAGITISGGRTYYADSVKGRFTISRDNAKNTVYLEMNSLKPEDTAVYYCAADWVYPPGLKDSVHFGEYDYWGQGTQVTVSS”, the “polyreactivity (PSR sort gate)” value is reported as “low polyreactivity”.
In the case of “QVQLVESGGGLVQAGGSLRLSCAASGIIFFYYAMGWYRQAPGKERELVASISSGGSTNYADSVKGRFTISRDNAKNTVYLQMNSLKPEDTALYYCAARRYYVRIQGYKLDYWGHGTQVTVSS”, the “polyreactivity (PSR sort gate)” value is reported as “low polyreactivity”.
For “QVQLVESGGGLVQAGGSLRLSCAASGITFLEYAMGWYRQAPGKERELVATINSGGSTNYADSVKGRFTISRDNAKNTVYLQMNSLKPVDTAVYYCAADYGSDYTKGDYWGQGTQVTVSS”, the “polyreactivity (PSR sort gate)” value was “low polyreactivity”.
For “QVQLVESGGALVQAGGSLRLSCAASGRIFWDYVMGWYRQAPGKEREFVAAISLDGNITYYADSVKGRFTISRDNAKNTVYLQMNSLKPEDTAVFYCAADQYFFFRARGYDYWGQGTQVTVSS”, the “polyreactivity (PSR sort gate)” value was “low polyreactivity”.
With “QVQLVESGGGLVQAGGSLRLSCAASGRIFRLYAMGWYRQAPGKERELVAAISFSGSRTYYADSVKGRFTISRDNAKNNVYLQMNSLQPEDTAVYYCNKDHYVRYGLDYWGQGTQVTVSS” the “polyreactivity (PSR sort gate)” value was “high polyreactivity”.
For “QVQLGESGGGLVQAGGSLRLICAASGSTTPGNAMGWYRQAPGKQREFDADINSGGGTNYADSVKGRFTISRDNAKNNVYLQMNSLKPEDTAVYYCAKGYRRSFIGYWYLKYGYWGQGTQVTVSS”, the “polyreactivity (PSR sort gate)” value was “high polyreactivity”.
For “QVQLVESGGGLVQAGGSLRLSCAASGRIFGYTMGWYRQAPGKERELVAAISKSGGSTYYADSVKGRFTISRDNAMNTVYLQMNSLKPEDTAVYYCNKPQRILYDYWGQGTQVTVSS”, the “polyreactivity (PSR sort gate)” value was “high polyreactivity”.
With “QVQLVESGGGLVQAGGSLRLSCAASGTFYKYAMGWYRQAPGKERELVAAISWRGGRTYADSVKGRFTISRDNANNTVYLQMNSLKPEDTAVYYCAAEYRYDWYTYGYWGQGTQVTVSS” the “polyreactivity (PSR sort gate)” value was “high polyreactivity”.
For “QVQLVESGGGLVQAGGSLRLSCAASGLIFDYYGMGWYRQAPGKEREFVAAINRSGGTTYYADSVKGRFTISRDNAKNTVYLQMNSLKPEDTAVYYCNADRGPAKLVYDPVIMDYWGQGTQVTVSS”, the “polyreactivity (PSR sort gate)” value was “low polyreactivity”.
For “QVQLVESGGGLVQAGGSLRLSCAASVLTFYEYAMGWYRQAPGKERELVASISGRAASTDYADSVKGRFTISRDNAKNTVYLQMNSLKPEDTAVYYCAVGVVGDIDTDGYWGQGTQVTVSS”, the “polyreactivity (PSR sort gate)” value was “low polyreactivity”.
In the case of “QVQLVESGGGLDQAGGSLRLSCAASGSIFDRYAKGWYRQAPGTERELVASITWRATSTYYADSVKGRFTISRDNAKNTVYLKMNRLKPEETAVYYCAAAIAFGYRGTVAKYGYWGQGTQVTVSS”, the “polyreactivity (PSR sort gate)” value is reported as “low polyreactivity”.
With “QVQLVESGGGLVQAGGSLRLSCAASGITFRTNTMGWSRQAPGKERELVAAITWDGGSTYYADSVKGRFTISRDNAKNTVYLQMNSLKPEDTAVYYCAARLSYLYGLYPYYYWGQGTQVTVSS” the “polyreactivity (PSR sort gate)” value was “high polyreactivity”.
For “QVQLVESGGGLVQAGGSLRLSCAASGFTFKYNAMGWYRQAPGKERELVASISRGSSTNYADSVKGRFTISRDNAKNTVYLQMNSLKPEDTAVYYCAKGYRPWGSYDYWGQGTQVTVSS”, the “polyreactivity (PSR sort gate)” value was “high polyreactivity”.
For “QVQLVESGGGLVQAGGSLRLSCAASGIIFAVYTMGWYRQARGKERELVAALSSGGSTYYADSVQGRFTISRDNAKNTVYLQMNSLKPEDTAVYYCNAQYFWLWLTYDFDYWGQGTQVTVSS”, the “polyreactivity (PSR sort gate)” value was “high polyreactivity”.
For “QVQLVESGGGLVQAGGSLRLSCAPSGSTSYLYAMGWYRQAPGKERELVATITTRSGSTYYADSVKGRFTISRDNAKNTVYIQMNSLKPEDTAVYYCAARWISVWSEGAEHDYWGQGTQVTVSS”, the “polyreactivity (PSR sort gate)” value was “low polyreactivity”.
In the case of “QVQLVESGGGVVQAGGSLRLSCAASGSTFSYNAMGWYRQAPGKERELVAAITSTGRTYYADSVKGRFTISRDNAKNTVYLQMNSLKPEDTAVYYCNKRARSEQYSYNYGYYYWGQGTQVTVSS”, the “polyreactivity (PSR sort gate)” value is reported as “high polyreactivity”.
In the case of “QVQLVESGGGLVQAGGSLRLSCAASGIIFVFYVMGWYRQAPGKERELVAAISGGGSTYYADSVKGRFTISRDNAKNTVYLQMNSLKPEDTAVYYCNADYDGGYYGDLSLYDYWGQGTQVTVSS”, the “polyreactivity (PSR sort gate)” value is reported as “low polyreactivity”.
For “QVQLVESGGGLVQAGGSLRLSCAASGYTFSDYAMGWYRQAPGKERELVAAISWSGGSTYYADSVKGRFTISRDNAKNTVYLQMNSLKPEDTAVYYCAAKWYAPDLLYYYWGQGTQVTVSS”, the “polyreactivity (PSR sort gate)” value was “low polyreactivity”.
With “QVQLVESGGGLVQAGGSLRLSCAASGIIFSQYAMGWYRQAPGKERELVATITSRGASTYYADSVKGRFTISRDNAKNTVYLQMNSLKPEDTAVYYCAATVRRRYERYNYWGQGTQVTVSS” the “polyreactivity (PSR sort gate)” value was “high polyreactivity”.
With “QVQLVESGGGLVQAGGSLRLSCAASGRTFPYYAMGWYRQAPGKERELVAAINSGGITNYADSVKGRFTISRDNAKNTVYLQMNSLKPEDTAVYYCAAKTAFYRERGYWGQGTQVTVSS” the “polyreactivity (PSR sort gate)” value was “low polyreactivity”.
In the case of “QVQLVESGGGLVQGGGSLSLSCAASGSNFWRYAMGWYRQAPGKEMELVAVISDRGCITYYADSVKGRFTISRDNAKNTVYLQMNSLKPEDTAVYYCNAVDSDRSDPSEYDYWGQGTQVTLSS”, the “polyreactivity (PSR sort gate)” value is reported as “low polyreactivity”.
With “QVQLVESGGGLVQAGGSLRLSCAASGSIFRSYALGWYRQAPGKERELVAAITWSGGRTYYADSVKGRFTISRDNAKNTVYLQMNSLKPEDTAVYYCNADVWWDTWFLDGYDYWGQGTQVTVSS” the “polyreactivity (PSR sort gate)” value was “high polyreactivity”.
For “QVQLVESGGGLVQAGGSLRLSCAASGSIFVGYAMGWYRLAPGKERELVASITNGDSTNYADSVKGRFTISRDNAKNTVYLQMNSLKPEDTAVYYCAADYYSFHPSGWYGYEYWGQGTQVTVSS”, the “polyreactivity (PSR sort gate)” value was “low polyreactivity”.
In the case of “QVQLVESGGGLVQAGGSLRLSCAPSGSTFSGYAMGWYRQAPGKEREFVATISISGCSTYYADSVKGRFTISRDNAKNTVYLQMNSLKPEDTAVYYCAKDSGSYRVGIYEPFPYGYWGQGTQVTVSS”, the “polyreactivity (PSR sort gate)” value is reported as “low polyreactivity”.
